Experimental data as given in patent US20090018070A1 (LABORATOIRES SERONO, published 2009).

B1: GNRT mutant FSH (Clone 10C, alpha GNRT / beta GM1) (ligand)
chain 1: not shown
chain 2: NSCELTNITIAIEKEECRFCISINTTWCAGYCYTRDLVYKDPARPKIQKTCTFKNLTYETVRVPGCAHHADSLYTYPVATQCHCGKCDSDSTDCTVRGLGPSYCSFGEMKE
B2: GNFT mutant FSH (Clone 11C, alpha GNFT / beta GM1) (ligand)
chain 1: not shown
chain 2: B1 chain 2

Biological target: T1, human FSH receptor (human, UniProt P23945 18-695)
T1 sequence (looked up): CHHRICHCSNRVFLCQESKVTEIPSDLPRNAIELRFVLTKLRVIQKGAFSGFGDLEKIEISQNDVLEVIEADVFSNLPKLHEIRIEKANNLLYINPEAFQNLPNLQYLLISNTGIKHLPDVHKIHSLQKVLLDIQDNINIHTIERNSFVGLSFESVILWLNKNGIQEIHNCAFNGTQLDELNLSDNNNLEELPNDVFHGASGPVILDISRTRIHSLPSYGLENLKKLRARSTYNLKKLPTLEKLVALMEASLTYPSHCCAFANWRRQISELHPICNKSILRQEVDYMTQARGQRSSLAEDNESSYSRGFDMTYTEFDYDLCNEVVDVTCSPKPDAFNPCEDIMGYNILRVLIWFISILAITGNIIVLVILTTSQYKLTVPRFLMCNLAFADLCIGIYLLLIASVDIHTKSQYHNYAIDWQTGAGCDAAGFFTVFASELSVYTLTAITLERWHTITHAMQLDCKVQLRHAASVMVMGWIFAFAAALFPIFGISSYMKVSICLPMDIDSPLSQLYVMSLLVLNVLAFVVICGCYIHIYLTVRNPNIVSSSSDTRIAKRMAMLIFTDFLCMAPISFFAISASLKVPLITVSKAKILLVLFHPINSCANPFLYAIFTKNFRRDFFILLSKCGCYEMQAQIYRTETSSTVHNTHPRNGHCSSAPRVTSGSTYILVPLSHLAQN
Assay: cell-based or functional assay

Binder	EC50 of cAMP production in CHO-FSHR cells [nM]
B1	0.258
B2	0.278
